Tests used:
[1] = pNA assay: protease activity with 1 mM Cu2+ relative to control without Cu2+; type: biochemical; conditions: enzyme 1 mg/l, Suc-AAPF-pNA, pH 7, 25° C.; for Enzyme Activity, +1 mM Cu^2+: 1 mM Cu2+; for Relative Activity: activity with 1 mM Cu2+ relative to control without Cu2+; for Enzyme Activity, Control (no Cu^2+): no Cu2+
Protocol: (§1) Protease activity is measured using the substrate Suc-AAPF-pNA, in assay buffer at pH 7.0 and 25° C. For more details, please refer to the pNA assay described in Example 4, which also describes in detail the determination according to i) and ii).
Feature ii) is determined as the enzyme activity in the presence of 1 mM Cu^2+, relative to the activity of the same enzyme under the same conditions, except for the presence of Cu^2+. For the protease of the invention, this relative activity is at least 0.66 (=66%). For the purposes of feature ii), enzyme (protease) activity is measured as described above.
pNA substrate: Suc-AAPF-pNA (Bachem L-1400) or Boc-VLGR-pNA (Bachem L-1205). Temperature: 25° C.
(§2) 20 ul (microliters) protease (diluted in 0.01% Triton X-100) was placed in a well of a micro titer plate. The assay was started by adding 200 ul pNA substrate (50 mg dissolved in 1.0 ml DMSO and further diluted 100× with assay buffer). The increase in OD405 was monitored as a measure of the protease activity.
First, the effect of various Cu^2+ concentrations was tested with an enzyme dosage of 1 mg/l. At least in the range of 0 to 1 mM Cu^2+ there seemed to be a linear relationship between inhibition and concentration of Cu^2+, the inhibition manifesting itself as a decrease in the enzyme activity with increasing concentrations of Cu^2+ (the enzyme activity being measured as average OD405 increase/time from the linear part of dose/response curves).

[2] = Stability assay: residual activity after incubation with 1 mM inhibitor, measured by pNA assay; type: physicochemical; set-up: key to Residual Enzyme Activity: fraction of activity at 0 h incubation (0.80 = 80%); conditions: for Stability in the presence of 1 mM Cu2+ / Residual Enzyme Activity: 25° C.; for Residual Enzyme Activity: 1 mM Cu2+, pH 7, 0.1% K-sorbate, relative to 0 hours; for Feature i): residual activity at least 0.80 after 164 hours with 1 mM Cu2+: pH 7, 25° C., 0.1% K-Sorbate
Protocol: Feature i) is determined as residual (=rest, or remaining) enzyme activity after having incubated the enzyme for 164 hours, at pH 7 and 25° C., in assay buffer supplemented with 0.1% K-Sorbate (for preservation purposes), and in the presence of 1 mM Cu^2+. The residual activity is measured relative to the activity after 0 hours of incubation. For the protease of the invention, the residual activity is at least 0.80 (=80%).
as §1, §2
The protease was diluted to approx. 1 mg/ml (see below) in assay buffer with 0.1% (w/v) K-sorbate (potassium salt of sorbic acid) and 1 mM inhibitor. The mixture was incubated at 25° C.). At intervals, a sample was withdrawn from the incubation (after thorough mixing) and frozen. After dilution in assay buffer, residual activity was measured using the pNA assay. For the 1 mM inhibitor additions, the incubation was diluted in assay buffer with 5 mM EDTA in order to see a pure stability effect.
Protease concentrations were estimated from the theoretical molar extinction coefficients, E280 (1 M), which can be calculated from the amino acid composition using the formula: E280 (1 M)=5690*NTrp+1280*NTyr+120*NCys, where NTrp, NTyr, and NCys are the number of Trp, Tyr, and Cys amino acid residues in the protease (Gill, S. C., von Hippel, P. H., Analytical Biochemistry 182: 319-326 (1989)) and the molecular weight, Mw, of the protease calculated from the amino acid sequence. From an A280 measurement of a pure protease sample (more than 95% pure according to Example 2), the protease concentration was calculated as: Conc (mg/ml)=(A280*MW)/E280 (1 M)).
The stability of the various proteases in the presence of the various inhibitors in a concentration of 1 mM was tested as described above. The only inhibitor that had some effect on the stability of some of the proteases was Cu^2+. However, the effect of this inhibitor was not the same on all the proteases: See the results in Table 2 below showing that Protease 18 and the Brachysporiella proteases are indeed stable in the presence of 1 mM Cu^2+, while the other proteases are not.

B1: Brachysporiella protease: protease from Brachysporiella gayana CGMCC 0865, amino acids 1-186 of SEQ ID NO: 14 (protein, listed as Brachysporiella gayana)
chain: MELTSLIAALAVILPIAYGVPMDATTNLSPKVLAAMKRDLGLDAREATARVTFERRAGDVIEELRSSLGDSFAGAWVTDGKVINIGVTDQALVSKVKEAGAEPMVMKNSLGKLQEAKKKLDQIIKEKPKTLSTSGKPGIATYYVDIETNKLIITALSTSITQAEDLAKEVGLSESEFEVRKTEKMP
Enzyme Activity, +1 mM Cu^2+ [1]: 50.5 mOD405/min | Relative Activity [1]: 0.695 | Enzyme Activity, Control (no Cu^2+) [1]: 72.6 mOD405/min | Stability in the presence of 1 mM Cu2+ [2]: stable | Residual Enzyme Activity ([2]; incubation time 0 hours): 1.000 | Residual Enzyme Activity ([2]; incubation time 3.1 hours): 1.022 | Residual Enzyme Activity ([2]; incubation time 18.6 hours): 1.073 | Residual Enzyme Activity ([2]; incubation time 44.0 hours): 1.057 | Residual Enzyme Activity ([2]; incubation time 116.0 hours): 1.029 | Residual Enzyme Activity ([2]; incubation time 164.0 hours): 1.053 | Residual Enzyme Activity ([2]; incubation time 188.6 hours): 0.984 | Feature i): residual activity at least 0.80 after 164 hours with 1 mM Cu2+ [2]: fulfil feature i)

B2: Protease 35: protease from Nocardiopsis prasina DSM 15649, amino acids 1-188 of SEQ ID NO: 8 (protein, listed as Nocardiopsis prasina)
chain: ATGPLPQSPTPEADAVSMQEALQRDLGLTPLEADELLAAQDTAFEVDEAAAEAAGDAYGGSVFDTETLELTVLVTDSAAVEAVEATGAGTELVSYGITGLDEIVEELNAADAVPGVVGWYPDVAGDTVVLEVLEGSGADVGGLLADAGVDASAVEVTTTEQPELYADIIGGLAYTMGGRCSVGFAATN
Enzyme Activity, +1 mM Cu^2+ [1]: 75.0 mOD405/min | Relative Activity [1]: 0.687 | Enzyme Activity, Control (no Cu^2+) [1]: 109.2 mOD405/min | Residual Enzyme Activity ([2]; incubation time 0 hours): 1.000 | Residual Enzyme Activity ([2]; incubation time 3.1 hours): 0.960 | Residual Enzyme Activity ([2]; incubation time 18.6 hours): 0.918 | Residual Enzyme Activity ([2]; incubation time 44.0 hours): 0.852 | Residual Enzyme Activity ([2]; incubation time 116.0 hours): 0.807 | Residual Enzyme Activity ([2]; incubation time 164.0 hours): 0.745 | Residual Enzyme Activity ([2]; incubation time 188.6 hours): 0.733

B3: Protease 18: protease from Nocardiopsis dassonvillei subsp. dassonvillei DSM 43235, amino acids 1-188 of SEQ ID NO: 12 (protein)
chain: APAPVPQTPVADDSAASMTEALKRDLDLTSAEAEELLSAQEAAIETDAEATEAAGEAYGGSLFDTETLELTVLVTDASAVEAVEATGAQATVVSHGTEGLTEVVEDLNGAEVPESVLGWYPDVESDTVVVEVLEGSDADVAALLADAGVDSSSVRVEEAEEAPQVYADIIGGLAYYMGGRCSVGFAAT
modifications: Nocardiopsis dassonvillei subspecies dassonvillei
Enzyme Activity, +1 mM Cu^2+ [1]: 158.0 mOD405/min | Enzyme Activity, Control (no Cu^2+) [1]: 193.1 mOD405/min | Stability in the presence of 1 mM Cu2+ [2]: stable | Residual Enzyme Activity ([2]; incubation time 0 hours): 1.000 | Residual Enzyme Activity ([2]; incubation time 3.1 hours): 0.985 | Residual Enzyme Activity ([2]; incubation time 18.6 hours): 1.008 | Residual Enzyme Activity ([2]; incubation time 44.0 hours): 1.003 | Residual Enzyme Activity ([2]; incubation time 116.0 hours): 0.982 | Residual Enzyme Activity ([2]; incubation time 164.0 hours): 1.030 | Residual Enzyme Activity ([2]; incubation time 188.6 hours): 0.993 | Feature i): residual activity at least 0.80 after 164 hours with 1 mM Cu2+ [2]: fulfil feature i)

B4: Protease 08: protease from Nocardiopsis alba DSM 15647, amino acids 1-188 of SEQ ID NO: 10 (protein, listed as Nocardiopsis alba)
chain: ATGPLPQSPTPDEAEATTMVEALQRDLGLSPSQADELLEAQAESFEIDEAATAAAADSYGGSIFDTDSLTLTVLVTDASAVEAVEAAGAEAKVVSHGMEGLEEIVADLNAADAQPGVVGWYPDIHSDTVVLEVLEGSGADVDSLLADAGVDTADVKVESTTEQPELYADIIGGLAYTMGGRCSVGFAA
Enzyme Activity, +1 mM Cu^2+ [1]: 174.5 mOD405/min | Enzyme Activity, Control (no Cu^2+) [1]: 216.0 mOD405/min | Residual Enzyme Activity ([2]; incubation time 0 hours): 1.000 | Residual Enzyme Activity ([2]; incubation time 3.1 hours): 0.936 | Residual Enzyme Activity ([2]; incubation time 18.6 hours): 0.867 | Residual Enzyme Activity ([2]; incubation time 44.0 hours): 0.842 | Residual Enzyme Activity ([2]; incubation time 116.0 hours): 0.767 | Residual Enzyme Activity ([2]; incubation time 164.0 hours): 0.721 | Residual Enzyme Activity ([2]; incubation time 188.6 hours): 0.703

B5: Protease 10: known protease derived from Nocardiopsis sp. NRRL 18262, amino acids 1-188 of SEQ ID NO: 2 (protein)
chain: ADIIGGLAYTMGGRCSVGFAATNAAGQPGFVTAGHCGRVGTQVTIGNGRGVFEQSVFPGNDAAFVRGTSNFTLTNLVSRYNTGGYATVAGHNQAPIGSSVCRSGSTTGWHCGTIQARGQSVSYPEGTVTNMTRTTVCAEPGDSGGSYISGTQAQGVTSGGSGNCRTGGTTFYQEVTPMVNSWGVRLRT
Enzyme Activity, +1 mM Cu^2+ [1]: 80.3 mOD405/min | Relative Activity [1]: 0.657 | Enzyme Activity, Control (no Cu^2+) [1]: 122.2 mOD405/min | Residual Enzyme Activity ([2]; incubation time 0 hours): 1.000 | Residual Enzyme Activity ([2]; incubation time 3.1 hours): 0.952 | Residual Enzyme Activity ([2]; incubation time 18.6 hours): 0.868 | Residual Enzyme Activity ([2]; incubation time 44.0 hours): 0.874 | Residual Enzyme Activity ([2]; incubation time 116.0 hours): 0.837 | Residual Enzyme Activity ([2]; incubation time 164.0 hours): 0.752 | Residual Enzyme Activity ([2]; incubation time 188.6 hours): 0.723

B6: Protease 11: protease from Nocardiopsis prasina DSM 15648, amino acids 1-188 of SEQ ID NO: 6 (protein, listed as Nocardiopsis prasina)
chain: ATGPLPQSPTPEADAVSMQEALQRDLGLTPLEADELLAAQDTAFEVDEAAAAAAGDAYGGSVFDTETLELTVLVTDAASVEAVEATGAGTELVSYGIEGLDEIIQDLNAADAVPGVVGWYPDVAGDTVVLEVLEGSGADVSGLLADAGVDASAVEVTSSAQPELYADIIGGLAYTMGGRCSVGFAATN
Enzyme Activity, +1 mM Cu^2+ [1]: 92.3 mOD405/min | Relative Activity [1]: 0.691 | Enzyme Activity, Control (no Cu^2+) [1]: 133.6 mOD405/min | Residual Enzyme Activity ([2]; incubation time 0 hours): 1.000 | Residual Enzyme Activity ([2]; incubation time 3.1 hours): 0.930 | Residual Enzyme Activity ([2]; incubation time 18.6 hours): 1.032 | Residual Enzyme Activity ([2]; incubation time 44.0 hours): 0.930 | Residual Enzyme Activity ([2]; incubation time 116.0 hours): 0.737 | Residual Enzyme Activity ([2]; incubation time 164.0 hours): 0.616 | Residual Enzyme Activity ([2]; incubation time 188.6 hours): 0.581

Source: patent US7906310B2, “Proteases” (Novozymes A/S, priority 2003, dated 2011)
